# Test results as given in the supplement of paper PMC10724198.
# ± gives the standard deviation of the averaged measurements.
# System: Saccharomyces cerevisiae
# Test: protein stability index of tFT-peptide fusion (C-terminal peptide) (PSI (0-1 scale)); higher = more stable (slower turnover)
# Settings: genetic background: cdc53-1; temperature: 37 C
# Method: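 MPS profiling in S. cerevisiae of the tFT-X12 degron library: putative degron peptides plus stable controls, 12 aa, fused to the C-terminus of a sfGFP-mCherry timer. Cells are FACS-sorted into 8 mCherry/sfGFP bins and deep-sequenced. PSI runs from 0 (unstable) to 1 (stable). Backgrounds are wild type, das1Δ and doa10Δ at 30 °C, and wild type, das1Δ, cdc34-1 and cdc53-1 at 37 °C; 2-3 technical replicates each.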
# 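Also: PSI is a weighted mean of sequencing reads over stability bins, variants kept only with over 10 reads, mCherry proximal and sfGFP distal, peptide attached via GGGS linker.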
row,Sequence,protein stability index
1,CLASCRHRTYLC,0.7142 ± 0.0013
2,CLFRVCLFILSI,0.49 ± 0.049
3,CLLGMKSRTILV,0.33 ± 0.0047
4,CLLSRYRVFFLG,0.7205 ± 0.0048
5,CLWLRCIVSILP,0.248 ± 0.0081
6,CPVSFSFCLKVL,0.431 ± 0.03
7,CRCLFVVKNWLS,0.706 ± 0.012
8,CSRTRLHCFTAS,0.7452 ± 0.0029
9,CSSIFSSSDCYA,0.7582 ± 0.0047
10,CVFCRVAVGVDG,0.5838 ± 0.0043
11,CVFVRCVDCMSG,0.544 ± 0.041
12,CVLGWCSLIAWC,0.238 ± 0.032
13,CWLFVWVRVISL,0.118 ± 0.01
14,DCLSFVLFLFLC,0.259 ± 0.015
15,DFCCGVILTCVC,0.106 ± 0.011
16,DGGHLVGHDLFY,0.747 ± 0.023
17,DIGCLWSKTRLC,0.7585 ± 0.0073
18,DILQITNIKQKR,0.741 ± 0.015
19,DVHPLFYCIPVY,0.0286 ± 0.016
20,FAIPFVLFFRVT,0.134 ± 0.0062
21,FASALAPLSAVA,0.494 ± 0.022
22,FCASCLVCFIYL,0.501 ± 0.0053
23,FCCWCVCFGYSG,0.604 ± 0.013
24,FCFCLVLRVFLG,0.171 ± 0.011
25,FCFFSMGFVLAL,0.365 ± 0.0065
26,FCIIVFYIFVGI,0.506 ± 0.078

row,Sequence,protein stability index
1,FCLMLWGAVLFL,0.29 ± 0.0077
2,FCVLLFFFPLII,0.293 ± 0.04
3,FEVLINIWFLSA,0.388 ± 0.026
4,FFACSLLFVLVF,0.175 ± 0.022
5,FFAIFSLLLSFT,0.482 ± 0.0083
6,FFALYGHILGLF,0.7821 ± 0.0041
7,FFFPFLCIAVSL,0.474 ± 0.016
8,FFICCPLLVVCS,0.0453 ± 0.027
9,FFILVFFSLLST,0.445 ± 0.018
10,FFLFILYFGSCF,0.422 ± 0.0051
11,FFLFLVCLFFFS,0.36 ± 0.1
12,FFLLSVVLKYSV,0.08659 ± 0.00036
13,FFRFNCVFWLFL,0.551 ± 0.033
14,FFRLFAPLLVVL,0.0677 ± 0.015
15,FFSQLFLEIVAA,0.0709 ± 0.031
16,FFVFSFVLFFPL,0.427 ± 0.054
17,FFVLGPVVMSIH,0.383 ± 0.032
18,FFVYFFLLLFWF,0.0838 ± 0.023
19,FGARCSLSPLVT,0.753 ± 0.017
20,FGCLFILRCSFL,0.487 ± 0.00067
21,FGKGRSLLLVFS,0.597 ± 0.022
22,FGRAVWSRFCIV,0.735 ± 0.029
23,FGVLLLFLFFLP,0.444 ± 0.02
24,FHRSVVRLWLRN,0.619 ± 0.024
25,FLAPPFLPPPPA,0.7351 ± 0.00039
26,FLCLLASFVVCF,0.312 ± 0.008

row,Sequence,protein stability index
1,FLFFWRASLFFW,0.164 ± 0.0095
2,FLIYMFRHCFFH,0.626 ± 0.034
3,FLMCVFFLCFSN,0.41 ± 0.051
4,FLSLPLFILFLS,0.232 ± 0.041
5,FLSLSFLLLHFP,0.39044 ± 0.00026
6,FLVLFYCTFWVR,0.242 ± 0.032
7,FLVPLSPMLLSA,0.451 ± 0.005
8,FMCCFWFFWLGF,0.518 ± 0.0095
9,FNLFWPVSAFVV,0.563 ± 0.011
10,FNMLFVVRLLYM,0.418 ± 0.0046
11,FPFFLLAAPFLA,0.621 ± 0.0096
12,FPFFVFRVWFGA,0.535 ± 0.01
13,FPPFALLLIIND,0.54 ± 0.039
14,FPRQFVYLPLLF,0.709 ± 0.025
15,FQPLELFFVCVF,0.154 ± 0.025
16,FRCFVLPYFGRF,0.699 ± 0.021
17,FRDRFLRWNLVS,0.676 ± 0.013
18,FRVFYSFLLCLS,0.189 ± 0.01
19,FRVILISACESV,0.582 ± 0.011
20,FSFPAFTFIVSI,0.346 ± 0.006
21,FSICGFYSLCFG,0.617 ± 0.019
22,FSLLFVRFCFFL,0.323 ± 0.0039
23,FSLLLSLSLFHC,0.555 ± 0.018
24,FSVLVVYTRLFQ,0.452 ± 0.033
25,FTEFWFFKQMSV,0.761 ± 0.015
26,FTRWLVYCTPLC,0.569 ± 0.0098

# Same assay, conditions: genetic background: das1 deletion; temperature: 30 C
row,Sequence,protein stability index
1,CLASCRHRTYLC,0.641 ± 0.023
2,CLFRVCLFILSI,0.333 ± 0.038
3,CLLGMKSRTILV,0.289 ± 0.028
4,CLLSRYRVFFLG,0.591 ± 0.023
5,CLWLRCIVSILP,0.184 ± 0.028
6,CPVSFSFCLKVL,0.32 ± 0.026
7,CRCLFVVKNWLS,0.623 ± 0.015
8,CSRTRLHCFTAS,0.647 ± 0.028
9,CSSIFSSSDCYA,0.672 ± 0.029
10,CVFCRVAVGVDG,0.438 ± 0.03
11,CVFVRCVDCMSG,0.384 ± 0.031
12,CVLGWCSLIAWC,0.234 ± 0.015
13,CWLFVWVRVISL,0.155 ± 0.038
14,DCLSFVLFLFLC,0.239 ± 0.025
15,DFCCGVILTCVC,0.191 ± 0.025
16,DGGHLVGHDLFY,0.656 ± 0.023
17,DIGCLWSKTRLC,0.652 ± 0.0094
18,DILQITNIKQKR,0.676 ± 0.038
19,DVHPLFYCIPVY,0.101 ± 0.037
20,FAIPFVLFFRVT,0.257 ± 0.03
21,FASALAPLSAVA,0.366 ± 0.044
22,FCASCLVCFIYL,0.426 ± 0.024
23,FCCWCVCFGYSG,0.395 ± 0.019
24,FCFCLVLRVFLG,0.154 ± 0.03
25,FCFFSMGFVLAL,0.334 ± 0.0061
26,FCIIVFYIFVGI,0.342 ± 0.027

row,Sequence,protein stability index
1,FCLMLWGAVLFL,0.235 ± 0.019
2,FCVLLFFFPLII,0.271 ± 0.029
3,FEVLINIWFLSA,0.3 ± 0.042
4,FFACSLLFVLVF,0.177 ± 0.022
5,FFAIFSLLLSFT,0.401 ± 0.028
6,FFALYGHILGLF,0.611 ± 0.023
7,FFFPFLCIAVSL,0.418 ± 0.034
8,FFICCPLLVVCS,0.091 ± 0.022
9,FFILVFFSLLST,0.283 ± 0.049
10,FFLFILYFGSCF,0.349 ± 0.034
11,FFLFLVCLFFFS,0.358 ± 0.032
12,FFLLSVVLKYSV,0.103 ± 0.029
13,FFRFNCVFWLFL,0.443 ± 0.021
14,FFRLFAPLLVVL,0.188 ± 0.028
15,FFSQLFLEIVAA,0.179 ± 0.03
16,FFVFSFVLFFPL,0.305 ± 0.046
17,FFVLGPVVMSIH,0.285 ± 0.031
18,FFVYFFLLLFWF,0.213 ± 0.029
19,FGARCSLSPLVT,0.618 ± 0.014
20,FGCLFILRCSFL,0.349 ± 0.035
21,FGKGRSLLLVFS,0.378 ± 0.044
22,FGRAVWSRFCIV,0.601 ± 0.0099
23,FGVLLLFLFFLP,0.337 ± 0.022
24,FHRSVVRLWLRN,0.604 ± 0.02
25,FLAPPFLPPPPA,0.672 ± 0.014
26,FLCLLASFVVCF,0.281 ± 0.039

row,Sequence,protein stability index
1,FLFFWRASLFFW,0.183 ± 0.029
2,FLIYMFRHCFFH,0.593 ± 0.015
3,FLMCVFFLCFSN,0.308 ± 0.024
4,FLSLPLFILFLS,0.283 ± 0.029
5,FLSLSFLLLHFP,0.385 ± 0.04
6,FLVLFYCTFWVR,0.222 ± 0.019
7,FLVPLSPMLLSA,0.375 ± 0.031
8,FMCCFWFFWLGF,0.421 ± 0.024
9,FNLFWPVSAFVV,0.436 ± 0.03
10,FNMLFVVRLLYM,0.334 ± 0.053
11,FPFFLLAAPFLA,0.546 ± 0.019
12,FPFFVFRVWFGA,0.414 ± 0.026
13,FPPFALLLIIND,0.396 ± 0.023
14,FPRQFVYLPLLF,0.555 ± 0.011
15,FQPLELFFVCVF,0.199 ± 0.02
16,FRCFVLPYFGRF,0.647 ± 0.0081
17,FRDRFLRWNLVS,0.6489 ± 0.0058
18,FRVFYSFLLCLS,0.228 ± 0.015
19,FRVILISACESV,0.403 ± 0.032
20,FSFPAFTFIVSI,0.336 ± 0.024
21,FSICGFYSLCFG,0.503 ± 0.021
22,FSLLFVRFCFFL,0.256 ± 0.037
23,FSLLLSLSLFHC,0.534 ± 0.0069
24,FSVLVVYTRLFQ,0.332 ± 0.042
25,FTEFWFFKQMSV,0.618 ± 0.031
26,FTRWLVYCTPLC,0.46 ± 0.011
